In publication PMC5454392, “Selective BET bromodomain inhibition as an antifungal therapeutic strategy” (Nature Communications, 2017):
Numbered stars: 1 amine (or outer) side, 2 acyl side, 3 side chain; on linkers, the order of the positions; unused ones are H or OH. Square brackets hold non-standard residues; d marks the D form. Ends that are not written are not given here. Arg(Me2a) = CN(C)C(=N)NCCC[C@H](N)C(=O)O; Kac = CC(=O)NCCCC[C@H](N[*:1])C(=O)[*:2]; Lys(Me3) = C[N+](C)(C)CCCC[C@H](N)C(=O)O; Arg(Me2s) = CN=C(NC)NCCC[C@H](N)C(=O)O; pT = C[C@@H](OP(=O)(O)O)[C@H](N)C(=O)O; Lys(Me2) = CN(C)CCCC[C@H](N)C(=O)O; pS = N[C@@H](COP(=O)(O)O)C(=O)O; Cit = NC(=O)NCCC[C@H](N)C(=O)O; Lys(Me) = CNCCCC[C@H](N)C(=O)O; Me2a = not defined here; me2a = not defined here

B1: H3 1-19 (peptide)
chain: AR(Me2s)TK(Me)QTAR(Me2a)K(Me)STGGKAPRKQ
modifications: reading uncertain
B2: H2a 1-19 (peptide)
chain: SGRGK(Ac)QGGKARAK(Ac)AKSRSS
B3: H3 1-19 (peptide)
chain: ARTKQTARKSTGGKAPRKQ
modifications: A Rme2s T Kme1 Q T A Rme2s Kac S T G G K A P R K Q
B4: H3 1-19 (peptide)
chain: ARTK(Me)QTAR(me2s)K(Me)STGGKAPRKQ
B5: H3 16-35 (peptide)
chain: PRKQLATKAARKSAPATGG
modifications: P R K Q L A T K A A Rme2a Kme3 S A P A T G G
B6: H3 1-19 (peptide)
chain: ARTKQTARKSTGGKAPRKQ
modifications: A R T K Q T A R K pS T G G Kac A P R K Q
B7: H3 1-19 (peptide)
chain: ARTKQTARKSTGGKAPRKQ
modifications: A R T Kme2 Q T A Rme2s Kac S T G G K A P R K Q
B8: H3 16-35 (peptide)
chain: PRKQLATKAARK(Ac)[pS]APATGG
B9: H2a 1-19 (peptide)
chain: SGRGKQGGK(Ac)ARAKAKSRSS
B10: H4 1-19 (peptide)
chain: SGRGKGGKGLGKGGAKRHR
modifications: S G Rme2a G Kac G G Kac G L G Kac G G A K R H R
B11: H3 1-19 (peptide)
chain: A[Arg(Me2s)]TK(Ac)QTA[Arg(Me2a)][Lys(Me)]STGGKAPRKQ
B12: H2B 1-19 (peptide)
chain: PDPAK(Ac)SAPAPKKGSKKAVT
B13: H3 1-19 (peptide)
chain: ARTKQTARKSTGGKAPRKQ
modifications: A Rme2a T Kme3 Q T A Rme2a Kme3 S T G G K A P R K Q
B14: H3 1-19 (peptide)
chain: ART[Lys(Me3)]QTARKSTGGKAPRKQ
B15: H4 1-19 (peptide)
chain: SGRGKGGKGLGKGGAKRHR
modifications: S G Rme2a G K G G Kac G L G K G G A K R H R
B16: H3 1-19 (peptide)
chain: ARTKQTA[Arg(Me2a)][Lys(Me)]S[pT]GGKAPRKQ
B17: H3 1-19 (peptide)
chain: ARTKQTARKSTGGKAPRKQ
modifications: A R T Kac Q T A Rme2s Kme2 S T G G K A P R K Q
B18: H3 1-19 (peptide)
chain: AR(me2a)TK(me2)QTAR(me2a)K(Me)STGGKAPRKQ
modifications: reading uncertain
B19: H2a 1-19 (peptide)
chain: [pS]GRGKQGGK(Ac)ARAKAKSRSS
B20: H4 1-19 (peptide)
chain: SGRGKGGKGLGKGGAKRHR
modifications: S G R G K G G Kac G L G K G G A K R H R
B21: H3 1-19 (peptide)
chain: ARTKQTARKSTGGKAPRKQ
modifications: A R T K Q T A Rme2a Kme3 S pT G G K A P R K Q
B22: H4 1-19 (peptide)
chain: SGRGKGGKGLGKGGAKRHR
modifications: S G Rme2a G K G G K G L G K G G A K R H R
B23: H2a 1-19 (peptide)
chain: [pS]GRGK(Ac)QGGK(Ac)ARAKAKSRSS
B24: H2B 1-19 (peptide)
chain: PDPAKSAPAPKKG[pS]K(Ac)KAVT
B25: H3 1-19 (peptide)
chain: ARTKQTARKSTGGKAPRKQ
modifications: A R T K Q T A Rme2a Kme3 pS pT G G K A P R K Q
B26: H3 1-19 (peptide)
chain: ARTKQTARKSTGGKAPRKQ
modifications: A R T K Q T A R Kme2 S pT G G K A P R K Q
B27: H3 1-19 (peptide)
chain: ARTKQTARKSTGGKAPRKQ
modifications: A Rme2s T Kac Q T A Rme2s Kme3 S T G G K A P R K Q
B28: background 01 (peptide)
chain: K[Lys(Me)][Lys(Me2)][Lys(Me3)]K(Ac)R[Arg(Me2s)]R[Arg(Me2a)]R[Cit]K[Lys(Me)]K(Ac)[Lys(Me3)]RK
B29: H3 1-19 (peptide)
chain: ARTK(Me)QTAR(me2s)K(me3)STGGKAPRKQ
B30: H3 1-19 (peptide)
chain: A[Arg(Me2a)]T[Kac]QTAR[Kac]STGGKAPRKQ
B31: H4 1-19 (peptide)
chain: SGRGKGGKGLGKGGAKRHR
modifications: S G R G K G G K G L G Kac G G A K R H R
B32: H3 26-45 (peptide)
chain: RKSAPATGGVKKPHRYRPG
modifications: not fully specified; histone peptide post-translational modifications (acetyl, methyl, phospho, citrulline) listed in columns 4-7 and embedded in the sequence text; N-terminus free or acetylated in column 8
B33: H2B 1-19 (peptide)
chain: PDPAK(Ac)SAPAPKK(Ac)GSK(Ac)KAVT
B34: H3 1-19 (peptide)
chain: ARTKQTA[Arg(Me2s)][Lys(Me)][pS]TGGKAPRKQ
B35: H3 1-19 (peptide)
chain: ARTKQTARKSTGGKAPRKQ
modifications: A Rme2a T Kme1 Q T A Rme2a Kme1 S T G G K A P R K Q
B36: H3 1-19 (peptide)
chain: ARTKQTARKSTGGKAPRKQ
modifications: A R T K Q T A R Kac S T G G Kac A P R K Q
B37: H3 1-19 (peptide)
chain: A[Arg(Me2s)]TKQTARKSTGGKAPRKQ
B38: H3 16-35 (peptide)
chain: PRKQLATKAAR(Me2s)K[pS]APATGG
B39: H3 1-19 (peptide)
chain: ARTKQTARKSTGGKAPRKQ
modifications: A R T K Q T A Rme2a Kme3 pS T G G K A P R K Q

Columns and labels:
[1] = target: T1, CaBdf1 BD1 (GST-tagged, wild-type) (Candida albicans (strain SC5314 / ATCC …, UniProt Q5A4W8)); assay: histone peptide array (Active Motif MODified), 1 uM GST-tagged bromodomain, anti-GST detection, normalized mean intensity
T1 chain: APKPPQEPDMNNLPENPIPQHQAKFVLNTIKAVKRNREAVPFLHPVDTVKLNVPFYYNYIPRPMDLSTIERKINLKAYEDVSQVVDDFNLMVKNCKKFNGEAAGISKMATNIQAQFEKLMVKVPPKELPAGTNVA

[2] = target: T2, CaBdf1 BD2 (GST-tagged, wild-type) (Candida albicans (strain SC5314 / ATCC …, UniProt Q5A4W8)); assay: as above
T2 chain: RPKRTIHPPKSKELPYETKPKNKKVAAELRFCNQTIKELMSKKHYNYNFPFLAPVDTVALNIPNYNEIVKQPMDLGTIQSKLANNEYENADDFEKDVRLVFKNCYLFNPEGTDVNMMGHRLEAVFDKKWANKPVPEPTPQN

| Binder | binding score [1] | binding score [2] |
| --- | --- | --- |
| B1 | 0.00435 | 0.00222 |
| B2 | 0.109 | 0.0859 |
| B3 | 0.0344 | 0.00555 |
| B4 | 0.00689 | 0.00592 |
| B5 | 0.00363 | 0.00703 |
| B6 | 0.0301 | 0.0107 |
| B7 | 0.0305 | 0.00592 |
| B8 | 0.0029 | 0.00148 |
| B9 | 0.0276 | 0.00814 |
| B10 | 0.236 | 0.375 |
| B11 | 0.00834 | 0.00296 |
| B12 | 0.00363 | 0 |
| B13 | 0.00399 | 0.00333 |
| B14 | 0.00399 | 0.00148 |
| B15 | 0.0218 | 0.0074 |
| B16 | 0.00471 | 0.00259 |
| B17 | 0.00363 | 0.00296 |
| B18 | 0.00363 | 0.00629 |
| B19 | 0.0174 | 0.0137 |
| B20 | 0.0344 | 0.027 |

| Binder | binding score [1] | binding score [2] |
| --- | --- | --- |
| B21 | 0.00653 | 0.00555 |
| B22 | 0.00906 | 0.0215 |
| B23 | 0.0381 | 0.00925 |
| B24 | 0.0914 | 0.145 |
| B25 | 0.00326 | 0.0037 |
| B26 | 0.00544 | 0.00185 |
| B27 | 0.00834 | 0.00555 |
| B28 | 0.00906 | 0.00629 |
| B29 | 0.00435 | 0.00407 |
| B30 | 0.046 | 0.00851 |
| B31 | 0.033 | 0.00851 |
| B32 | 0.00508 | 0.00296 |
| B33 | 0.0616 | 0.137 |
| B34 | 0.00508 | 0.00259 |
| B35 | 0.00363 | 0.00259 |
| B36 | 0.095 | 0.0211 |
| B37 | 0.000725 | 0.0037 |
| B38 | 0.00181 | 0.00444 |
| B39 | 0.00254 | 0.00333 |
